Data taken from patent US20130177981A1 (WISCONSIN ALUMNI RESEARCH FOUNDATION, published 2013).
Like-named read-outs stand apart in the source and are kept apart here. Where no end group is shown, it is not given here. [ ]: non-standard residue; d: D form. APC = trans-3-aminopyrrolidine-4-carboxylic acid; ACPC = trans-2-aminocyclopentanecarboxylic acid; β3hR = N=C(N)NCCC[C@H](N)CC(=O)O; β3hT = C[C@@H](O)[C@H](N)CC(=O)O; β3hE = N[C@@H](CCC(=O)O)CC(=O)O; β3hA = C[C@H](N)CC(=O)O

B1: chimeric CHR α/β-peptide 8 (peptide)
peptide: Ac-TTWEAWDRAIAEYA[ACPC]RIE[ACPC]LI[APC]AAQ[β3hE]QQ[β3hE]KNE[ACPC]AL[APC]EL-NH2
modifications: not fully specified
notes: Made from 7 by replacing two β3-hArg residues with APC
B2: α/β-peptide 6 (peptide)
peptide: Ac-TTWEAWDRAIAEYA[β3hA]RIE[β3hA]LI[β3hR]AAQ[β3hE]QQ[β3hE]KNE[β3hA]AL[β3hR]EL
notes: also called (α+α/β)-peptide 6; oligomer 6
B3: α/β-peptide 11 (peptide)
peptide: Ac-A[β3hE]YA[ACPC]RIE[ACPC]LI[APC]AAQ[β3hE]QQ[β3hE]KNE[ACPC]AL[APC]EL
notes: also called oligomer 11; truncated α/β-peptide 11
B4: α/β-peptide 10 (peptide)
peptide: Ac-[β3hT]TWE[ACPC]WD[APC]AIA[β3hE]YA[ACPC]RIE[ACPC]LI[APC]AAQ[β3hE]QQ[β3hE]KNE[ACPC]AL[APC]EL-NH2
notes: Made from 9 by replacing the three β3-hArg residues with APC; also called foldamer 10
B5: (α+α/β)-peptide 5 (peptide)
peptide: Ac-TTWEAWDRAIAEYAARIEALI[β3hR]AAQ[β3hE]QQ[β3hE]KNE[β3hA]AL[β3hR]EL
notes: Chimera of α-peptide 3 and α/β-peptide 4; also called oligomer 5

Experiments:
[1] = target: T1, gp41 of the envelope glycoprotein of the HIV-1 clone HxB2 (HIV-1 clone HxB2, UniProt P04578 33-856); assay: cell-based or functional assay
[2] = target: T1, gp41 of the envelope glycoprotein of …; assay: cell-based or functional assay; remark: listed apart in the source
[3] = target: gp41 of HIV-1 strain NL4-3 (HIV-1 strain NL4-3); assay: cell-based or functional assay
gp41 of HIV-1 strain HC4 = gp41 of HIV-1 strain HC4 (HIV-1 strain HC4); assay: cell-based or functional assay
[4] = target: gp41 of HIV-1 strain CC 1/85 (HIV-1 strain CC 1/85); assay: cell-based or functional assay
[5] = target: gp41 of HIV-1 strain DJ258 (HIV-1 strain DJ258); assay: cell-based or functional assay
gp41-5 [6] = target: T2, gp41-5 (HIV); assay: competition FP; displacement of Flu-C38 from gp41-5
T2 construct: also called gp41-5 protein construct; five-helix bundle protein

gp41-5 [7] = target: T2, gp41-5; assay: as above; remark: listed apart in the source
Method: Competition fluorescence polarization assays were conducted in black 96-well plates. […] A second stock plate was prepared containing serial dilutions of peptide inhibitors in DMSO. The peptide stock solutions were transferred to the assay plate (1 μL per well). […] All experimental conditions were carried out in duplicate, and each peptide was assayed in 2-3 independent experiments. Data analysis was carried out in GraphPad Prism. Raw mP data from each experiment were fit to a sigmoidal dose response and normalized to the resulting parameters for the top and bottom of the curve. All experiments included at least one compound showing complete inhibition at the highest concentrations tested. Normalized data from multiple independent runs of the each oligomer were combined and globally fit to an exact analytical expressions for FP competitive binding with Kᵢ as the only floating parameter.

NHR α-peptide 1 [8] = target: T3, NHR α-peptide 1 (HIV, N-terminus acetyl-capped); assay: CD at 222 nm, thermal unfolding, 20 µM total peptide in PBS
T3 construct: Forms a six-helix bundle (three NHR and three CHR helices) when mixed with CHR peptides; also called NHR peptide 1

NHR α-peptide 1 [9] = target: T3, NHR α-peptide 1; assay: as above; remark: listed apart in the source
gp41-5 [10] = target: T2, gp41-5; assay: competition FP on gp41-5
[11] = target: the molecule itself; assay: crystal structure of 10 alone (self-assembly)
gp41-5 [12] = target: T2, gp41-5; assay: competition FP; displacement of Flu-C38 from gp41-5; remark: listed apart in the source

Binder | Cell-Cell Fusion IC50 [1] | Cell-cell fusion inhibition IC50 [2] | Inhibition of HIV-1 infectivity, IC50 (nM), NL4-3 [3] | Inhibition of HIV-1 infectivity, IC50 (nM), HC4 (gp41 of HIV-1 strain HC4) | Inhibition of HIV-1 infectivity, IC50 (nM), CC 1/85 [4] | Inhibition of HIV-1 infectivity, IC50 (nM), DJ258 [5] | Ki (gp41-5 [6]) | Ki (gp41-5 [7]) | Tm,app of the 1:1 NHR + CHR mixture (NHR α-peptide 1 [9]) | other results
Ac-TTWEAWDRAIAEYAARIEALIRAAQEQQEKNEAALREL (also called T-2635; CHR α-peptide 3) [α-peptide 3] | 9 nM | 9 nM | 5 nM | 27 nM | 140 nM | 58 nM | 0.2 nM | < 0.2 nM | 77 ° C. | Tm of the 1:1 NHR + CHR mixture (NHR α-peptide 1 [8]): 77 ° C.
B1 | – | – | – | – | – | – | – | – | 65 ° C. | –
B2 | – | – | – | – | – | – | 15 nM | 15 nM | – | –
B3 | – | – | – | – | – | – | – | > 10000 nM | – | –
Ac-[β3hT]TWE[ACPC]WD[β3hR]AIA[β3hE]YA[ACPC]RIE[ACPC]LI[β3hR]AAQ[β3hE]QQ[β3hE]KNE[ACPC]AL[β3hR]EL (not fully specified, to be checked against the listing) [α/β-peptide 9] | – | – | – | – | – | – | 83 nM | 83 nM | – | fold higher affinity than 4 (gp41-5 [10]): 50 fold; fold improvement in Ki relative to 4 (gp41-5 [10]): > 45 fold
Ac-[β3hT]TWE[β3hA]WD[β3hR]AIA[β3hE]YA[β3hA]RIE[β3hA]LI[β3hR]AAQ[β3hE]QQ[β3hE]KNE[β3hA]AL[β3hR]EL (also called oligomer 4) [α/β-peptide 4] | 390 nM | 390 nM | 700 nM | 590 nM | 1300 nM | 960 nM | 3800 nM | 3800 nM | – | fold weaker binding than α-peptide 3 (gp41-5 [10]): > 10000 fold
B4 | 5 nM | 5 nM | 28 nM | 59 nM | 180 nM | 110 nM | 9 nM | 9 nM | 55 ° C. | fold difference in affinity against 5 (gp41-5 [10]): > 45 fold; fold enhanced binding relative to 4 (gp41-5 [10]): ~380 fold; fold improvement in Ki relative to 9 (gp41-5 [10]): ~10 fold; binding result [11]: binds; Tm of the 1:1 NHR + CHR mixture (NHR α-peptide 1 [8]): 55 ° C.
Ac-[β3hR]TWE[β3hE]WD[β3hR]AIA[β3hE]YA[ACPC]RIE[ACPC]LI[APC]AAQ[ACPC]QQ[APC]KNE[ACPC]AL[APC]EL-NH2 (not fully specified, also called compound 16; peptide 16) [α/β foldamer 16] | – | – | – | – | – | – | – | – | – | Ki (gp41-5 [12]): 3 nM
B5 | 7 nM | 7 nM | 10 nM | 55 nM | 270 nM | 280 nM | 0.2 nM | < 0.2 nM | 67 ° C. | Tm of the 1:1 NHR + CHR mixture (NHR α-peptide 1 [8]): 69 ° C.
Ac-[β3hR]TWE[β3hE]WD[β3hR]AIA[β3hE]YA[β3hR]RIE[β3hE]LI[β3hR]AAQ[β3hE]QQ[β3hR]KNE[β3hE]AL[β3hR]EL-NH2 (also called compound 17; peptide 17) [α/β foldamer 17] | – | – | – | – | – | – | – | – | – | Ki (gp41-5 [12]): 11 nM
Ac-TTWEAWDRAIAEYA[ACPC]RIE[ACPC]LI[β3hR]AAQ[β3hE]QQ[β3hE]KNE[ACPC]AL[β3hR]EL (also: other residues as in 6, also called oligomer 7) [α/β-peptide 7] | – | – | – | – | – | – | 0.4 nM | 0.4 nM | – | fold higher affinity relative to 6 (gp41-5 [10]): > 30 fold; fold improvement in binding relative to 6 (gp41-5 [10]): 40 fold
